Results on 2 molecules are retold here after PMC4721540, “Selective activators of protein phosphatase 5 target the auto-inhibitory mechanism” (Bioscience Reports, 2015).

The labels stand for the following.
B1: C-terminal Hsp90/DAF-21 peptide (AEEDASRMEEVD) (peptide)
peptide: AEEDASRMEEVD
notes: C-terminal peptide of Hsp90/DAF-21 of C. elegans; also called MEEVD peptide; MEEVD-containing peptide; source: bought: Biomatik
B2: PPH-5 (protein phosphatase homologue), PP5 from nematode origin (enzyme, C. elegans, UniProt Q9NES8 1-496, looked up)
chain: MAATITDDIVATVLESIEEKSYEDEKEKAGMIKDEANQFFKDQVYDVAADLYSVAIEIHPTAVLYGNRAQAYLKKELYGSALEDADNAIAIDPSYVKGFYRRATANMALGRFKKALTDYQAVVKVCPNDKDARAKFDECSKIVRRQKFEAAISTDHDKKTVAETLDINAMAIEDSYDGPRLEDKITKEFVLQLIKTFKNQQKLHKKYAFKMLLEFYNYVKSLPTMVEITVPTGKKFTICGDVHGQFYDLCNIFEINGYPSETNPYLFNGDFVDRGSFSVETIFTMIGFKLLYPNHFFMSRGNHESDVMNKMYGFEGEVKAKYTQQMCDMFTETFCWLPLCHLINEKIFVCHGGLFKEDGVTLEDIRKTDRNRQPPDEGIMCDLLWSDPQPINGRSPSKRGVGCQFGPDVTSKWCETNGIEYVVRSHEVKPEGYEMHHNGQCFTVFSAPNYCDQMNNKGAFITITGDNLTPRFTPFDAVPHPKLPPMAYANSLFGFN
notes: PPH-5, the protein phosphatase 5 homologue of C. elegans; also called nematode PPH-5; PPH-5 (C. elegans); source: cloning and purification as described before [32-35]

For experiment [1], the target named is B2. The experiment is described as follows: AUC; sedimentation velocity with fluorescence detection; 300 nM labelled YFP–Hsp90, 3 μM PPH-5; 40 mM HEPES/KOH, pH 7.5, 20 mM KCl, 1 mM DTT; 20°C, 142000 g, 12 h; P5SAs at maximal soluble concentrations or 60 μM C-terminal Hsp90/DAF-21 peptide added where indicated. As to conditions: both partners purified.
Another experiment has as its target T1, YFP-CeHsp90/DAF-21 (C. elegans, UniProt Q18688 1-702).
T1 construct: Hsp90 of C. elegans (CeHsp90/DAF-21); Detected in the AUC by YFP fluorescence; also called YFP–Hsp90; YFP-tagged Hsp90; source: cloning and purification as described before [32-35]
The description is as above. As to conditions: both partners purified.

In the case of B1, the binding result in experiment [1] is given as “binds”.

Turning to B2, the binding result in the experiment with YFP-CeHsp90/DAF-21 was “binds”.
